{
  "source": "patent US20070036781A1",
  "molecules": {"B1": {"name": "macrophage inflammatory protein-4 (MIP-4) (ligand)", "chain": "AQVGTNKELCCLVYTSWQIPQKFIVDYSETSPQCPKPGVILLTKRGRQICADPNKKWVQKYISDLKLNA"}},
  "key": {"[1]": {"molecular_target": "T1, short form of human CCRL2 (CRAM-B) (human) (UniProt O00421)", "T1 sequence": "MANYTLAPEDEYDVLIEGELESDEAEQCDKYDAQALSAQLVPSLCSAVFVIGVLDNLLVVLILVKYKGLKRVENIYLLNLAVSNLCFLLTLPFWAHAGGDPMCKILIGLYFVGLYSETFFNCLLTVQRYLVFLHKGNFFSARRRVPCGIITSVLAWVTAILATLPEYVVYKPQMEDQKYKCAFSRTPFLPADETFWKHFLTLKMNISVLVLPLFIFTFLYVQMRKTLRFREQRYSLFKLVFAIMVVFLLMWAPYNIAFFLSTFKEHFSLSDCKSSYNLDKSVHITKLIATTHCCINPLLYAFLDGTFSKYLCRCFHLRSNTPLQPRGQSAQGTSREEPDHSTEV", "assay": "cell-based or functional assay"}, "[2]": {"molecular_target": "Corticotropin Releasing Factor Receptor (CRFR), CRF-R1 (UniProt P34998)", "sequence (P34998 24-415 limits assumed)": "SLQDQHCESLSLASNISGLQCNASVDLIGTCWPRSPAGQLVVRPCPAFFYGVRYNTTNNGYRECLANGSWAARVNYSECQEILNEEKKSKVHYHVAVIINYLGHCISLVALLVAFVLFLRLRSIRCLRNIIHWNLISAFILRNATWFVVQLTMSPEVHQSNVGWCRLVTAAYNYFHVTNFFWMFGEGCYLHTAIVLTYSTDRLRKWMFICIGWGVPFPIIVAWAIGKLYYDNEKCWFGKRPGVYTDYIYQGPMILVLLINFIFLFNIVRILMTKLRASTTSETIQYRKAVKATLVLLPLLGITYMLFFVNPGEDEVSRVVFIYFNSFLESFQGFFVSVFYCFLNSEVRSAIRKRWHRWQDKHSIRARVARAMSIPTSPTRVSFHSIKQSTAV", "assay": "cell-based or functional assay"}},
  "data": [
    {"molecule": "Monocyte chemotactic protein-3 (MCP-3) (from UniProt P80098 24-99) (ligand)", "values": [
      {"measurement": "LacZ activity, Gi2-transplant yeast, 10^-6 M ligand", "setting": "[1]", "value": 2.2, "unit": "LacZ units"},
      {"measurement": "chemotaxis of CCRL2 transfected cells, 10 nM chemokine; more cells passing across the membrane than untreated cells", "setting": "[1]", "value": 35, "unit": "%"}
    ]},
    {"molecule": "Monocyte chemotactic protein-1 (MCP-1) (from UniProt P13500 24-99) (ligand)", "values": [
      {"measurement": "LacZ activity, Gq-transplant yeast, 10^-6 M ligand", "setting": "[1]", "value": 5.7, "unit": "LacZ units"}
    ]},
    {"molecule": "B1", "values": [
      {"measurement": "LacZ activity, Gi3-transplant yeast, 10^-6 M ligand", "setting": "[1]", "value": 6.5, "unit": "LacZ units"},
      {"measurement": "chemotaxis of CCRL2 transfected cells, 10 nM chemokine; more cells passing across the membrane than untreated cells", "setting": "[1]", "value": 35, "unit": "%"}
    ]},
    {"molecule": "SEEPPISLDLTFHLLREVLEMARAEQLAQQAHSNRKLMEII (peptide, UniProt P06850 154-194, looked up)", "note": "[Corticotrophin releasing factor (CRF)]", "values": [
      {"measurement": "LacZ activity, Gi2-transplant yeast, 10^-6 M ligand", "setting": "[2]", "value": 6.4, "unit": "LacZ units"},
      {"measurement": "LacZ activity, Gi3-transplant yeast, 10^-6 M ligand", "setting": "[2]", "value": 17.2, "unit": "LacZ units"}
    ]},
    {"molecule": "DNPSLSIDLTFHLLRTLLELARTQSQRERAEQNRIIFDSV (peptide, UniProt P55089 83-122, looked up)", "note": "[Urocortin]", "values": [
      {"measurement": "LacZ activity, Gq-transplant yeast, 10^-6 M ligand", "setting": "[2]", "value": 6.9, "unit": "LacZ units"}
    ]}
  ]
}
